Data reported in patent US10801046B2, “Methods and materials for biosynthesizing multifunctional, multivariate molecules via carbon chain modification” (INVISTA NORTH AMERICA S.A.R.L., priority 2016, dated 2020).

Assays:
[1] = In vivo carboxylate reductase screening, substrate consumption by LC-MS, heptanedioate; format: cell-based, Escherichia coli; conditions: 541 enzymes screened in vivo
Procedure: To screen carboxylate reductases in vivo, […] T7- pUC expression vectors was co-transformed into T7 Express lysY/Iq with the phosphopantetheinyl transferase sfp from Bacillus subtilis on a T7-pCDF expression vector. Biological duplicates of the resulting strains were incubated in 0.5 mL of terrific broth containing either 1 g/L heptanedioate or 1 g/L monomethyl heptanedioate and supplemented with 0.4 mM IPTG in 96-well deep well plates. The plates were incubated for 30 h at 30° C. in a shaking incubator. The cells were then pelleted, and culture supernatants from the same strains in media containing either heptanedioate or monomethyl heptanedioate were combined. The combined supernatants were analyzed by LC-MS to determine the concentration of heptanedioate and monomethyl heptanedioate. Carboxylate reductase activity on heptanedioate or monomethyl heptanedioate was reflected by consumption of the respective substrate in the medium.

[2] = tested on: heptanedioyl-ACP methyl ester; assay: Cell lysate in vitro thioesterase screen (DTNB, absorbance at 410 nm) on heptanedioyl-ACP methyl ester; format: biochemical; conditions: 0.33 mM acyl-ACP substrate, 30° C., 30 min

Row | Molecule | substrate preference, heptanedioic acid to 7-oxoheptanoate [1] | activity toward heptanedioyl-ACP methyl ester (hydrolysis) [2]
1 | SEQ ID NO: 201: Auxenochlorella protothecoides carboxylate reductase (protein, Auxenochlorella protothecoides, Auxenochlorella protothecoides carboxylate reductase) MSTFPPLDAQCVVLPEKLNAPGPWTVRRNANFPEALIDSFDGEESHVRTCYDLLEHSVVKYPDSPYLGTRSVDARGAPGPYAWLSYSQVGEARTQIGSGLAHLGVRPGSNVGLFSTNCADWVLVDAALHAYACVSVPLYDTLGADVVQFVNNHAELAAVACSAATLPALLETLPASPTVAVVVVYAAPAGFRMPATPPGSAARLVSLDRLRALGMKHPSPHVPPSPADTALINYTSGTTGMPKGVVLTHANIVASIAGQIRSTAVLATIDATERHISYLPLAHIFERVTYMSVTHRGGAIGFFRGDVLTLLEDIQALRPTYFPSVPRLWNRIYDRIMAQVAASSPVKRRLFETAYAYKKRHMAAGDMTGGPWAGFWNRLVFNKIKQAVGGEVRMMVSGASALSPEVFEFMRIVFDCVVIEGYGMTETTSGATISIPGDPVIGHVGIPTPACEVKLADVPEMGYTNADLPRPRGEICVRGPLRFKEYYKDPENTRETIDEEGWLHTGDIGTWLPGERLKIIDRKKNIFKLSQGEYVAPEKIENIYVRSPYVAQVFVHGDSLRSCIVGVVVPDPEVLLPWAKQRGLPQDLATLCEDEQVKAMIQKSLSEEARVAKLKGFEQVADIVLTPVPFSVETGTMTPTFKLKRPQLREAYAPALEAMYARLPM | preferred acting upon heptanedioic acid to form 7-oxoheptanoate | 
2 | SEQ ID NO: 200: Tetrahymena thermophila (strain SB210) carboxylate reductase (protein, Tetrahymena thermophila (strain SB210), Tetrahymena thermophila (strain SB210) carboxylate reductase) MGANQSSRIYNVPIDEKKDGYSQIMRHPKYIDKLEYKPIPEIDNVQDLVLHGYSNSKEMNFFGKKNPVSNEFEYMTYDQVIEQAKQLGSAVKNLQFLKESSEQSNQKMELIGIYSKNRIEWGIADIANSLYGYTMVPLYDSLGPDSISYVLANSEITTCYCSAASVLTLSKTKDLHHLKNIISFDHVSEDLIELVKQRGIVVHLFKDIVEKGSLNVLPLPKLTRDTIFTFCYTSGTTGNPKSAMISHKNILASVTNYDKSDCFLTQDDVHLSYLPLPHIYERFINVYCWFKGTKIAFYSGDVHKIQEDIIASKPTCFSAVPRLLNRFYDAINSKLNQATGFQKILIQHALQTKLENIQKNGVYTHILYDKIIFNKIREQFGGRIRQLVCGSAPTSPKVFDFFKAVLSCSVIEGFGQTELSGVVTIQVKADPKMGNVGGIGPSSELKLEDVPEMEYLSTDKDELGNPKPRGEICVRGYNVFSGYYKDEEKTKEAIDQEGWFHTGDIGEIIPNGGLKIIDRKKNLFKLSQAEYVSPEKVENIYVRARGVQEVYIHGESLYNYCIGIIVPSQEELLKIAAELNISETDIASLCKNQQIISWYIKTIHNLGKHEGLFSFEQPKKIYLEPKSFLVIGCVTNSFKLQRHHAKNYFKNIIQELYNNNNNQ | preferred acting upon heptanedioic acid to form 7-oxoheptanoate | 
3 | SEQ ID NO: 93: Oceanimonas sp. thioesterase (protein, Oceanimonas sp. (strain GK1), Oceanimonas sp. thioesterase) MLRILVLLLCLVSPTVLADTLLILGDSLSAGYRMRSDQAWPHLLAEQWRREGRQVTVINASVSGDTTQGGLQRLPPLLQRHQPSLVLLELGGNDGLRGLPPGLIERNLERLIALAGDAGARVILTDIQLPPNYGRRYLQQFEQVFSRLASQHQLPLLPFFVAPLMGEQGMMMDDGIHPTVKAQPLIARQVGEFLTPYLTP |  | notable for their activity toward heptanedioyl-ACP methyl ester
4 | SEQ ID NO: 89: Clostridium cellulolyticum thioesterase (protein, listed as Clostridium cellulolyticum, Clostridium cellulolyticum (strain ATCC 35319 / DSM 5812 / JCM 6584 / H10), Clostridium cellulolyticum thioesterase) MEPLSIYKKNYHVDYGDADFYKRLKLSYLFNYFQNIAGLHSENTNVGIRKLQNDYGAAWVMTRMLMDINRMPECNEEISIETWPVEPKKKMIDRNFIVRDMDGSILASAISTWVILDMEKREMVRIDSVIPPQYPEFLKSKAIDRKFDKLKPSGQLQPAYKKLVGFSDIDINGHVNNAKYIDYILDCFTVEKHGEYRVKSIQINYVNEAVAGDIISLYKDTVDMDGSDKAVYITGINEVDGKVNFESHIRVQ |  | notable for their activity toward heptanedioyl-ACP methyl ester
5 | SEQ ID NO: 203: Labilithrix luteola carboxylate reductase (protein, listed as Labilithrix luteola) MDISRFLDLRIAPRAVFDALEERKTRARFMVPTAPGSNEWRPVTWGAFAQEIRELALFLSTVLSSGDRGAVYAPNRVEWASAALAIQAAGGVIVPIYPASTPDQLSYVASHSDAKVIFVDTAPLLTRLFATWNSTPGVEKIVVLDDGIDVARVYESAREKGIPVPSLDAVERKVLSIGKARGIGAARDQEDPQAFERTMAAISLDQAGMMLYTSGTSGNPKGVPLTHRNVAVNGLDWLKCNYPLLEEGDVDILWLPMSHIFGFGEMCLGNTLGWTSYLADPATCLGRLPEVTPNIFMSVPSHWEKLALMAMHEPTPQARLDKFKAATGGKLRFCLSGGAGLKREVKDFFYSCGVLIVEGYGLTETSPTLTLNRPDAFRFDTVGKTLPSVELRLADDGEILARGASVFGGYHKDPEATREAFTEDGWFKTGDVGRFTDDGFLQIIDRKKDILVTAGGKNVPPANIEIRFQDDPLFAHVVVYGDAKKYLVAGVWLNEEAMSSQLASVPKDQQESARRDLVQKRIDHVNASLASYETIKKFSIIGEPLTVEAGLLTPSLKMRRKKVYEHFHGIFEGMFEDTQGKGAASSTASQGSGA | preferred acting upon heptanedioic acid to form 7-oxoheptanoate | 
6 | SEQ ID NO: 204: Geotrichum candidum carboxylate reductase (protein, listed as Geotrichum candidum) MSATLNGTQFPPEVAARLRTYPIATDPSVNANTPLITDPVTVKPYKIGKPQAVPVPGSKVDGFSEVYRNAHCPDRLVTTVHPKITTVVEAFDACVSEYKNEKALGERVFDGKTKTWSKIYQYETYGTIAKRRLDIGKGISKVVQDVTGFDSRQTPYCLGLYGPNCSNWILTDLAAQTQSIPTVCLYDTLGPDSTRYIMTLTEMPAIVCSVAHIPFVLNIKDELPNLKVIIAMNPINNPDIVDKPGQSKKDVLTAWAKKSGVELFEFTEVEKIGRESGRGLHLPGPDTVLTINFTSGTTGNPKGVVISQANVLAGTIVARSQSTFNHRGSSGFLSFLPLAHIYERLTIHSVLTSGIPIGFFHGDVAELLDDIATYHPTIVAGVPRIWNRIAGAIRASTIEAPGIAGALSRKAYTTKLARLHETGDYHHPIWDRLWSNKIRTKTGFDQAKTFVTGSAPMARENIELIKVALGVEFVQGYGLTETMGGISVCSPGDNTAGSVGPVAITTEVKLRDLPTMNYSSSDKPFPRGEIMIRGPQVFMGYYKNEEATKGSIDEDGWFSSGDVGMIDDLGRLYVIDRVKNFFKLAQGEYVGPERIEALYQSSSGLVAQIFVEGNSLETYLVGIVGVNPEAYVQFLSHNFKMHIKPTDLEAIKKTFSRKDIRDTFLLELNVHAKDAQLKGYEKIKNVTLAIEPFSVENGTLTPTLKVKRPDAARLFKADVDAMYKEGPVEVKSKL | preferred acting upon heptanedioic acid to form 7-oxoheptanoate | 
7 | SEQ ID NO: 92: Treponema primitia thioesterase (protein, Treponema primitia (strain ATCC BAA-887 / DSM 12427 / ZAS-2), Treponema primitia thioesterase) MDVWKESYPVGFTAVDESEGLTLAAAFDYFQEAARRHAEVLGVGQEPMVQAGQGWVLSRISVLVERRPRQGELITVSTWPRGWEKLFALRDFDIRDESDKPIVRARSCWLIVNIEKRRPLRPQATMEKLPLNEGRDALPGGGVGLAPLENLLKAGDRVAAYSDIDYNGHVNNARYVQWVQDIADPTALVQAKTLRLDINYLSEVKIHEPIELWTEPLPAESDAVYTLGVEGRRNGGAVFRAELRIKD |  | notable for their activity toward heptanedioyl-ACP methyl ester
8 | SEQ ID NO: 60: Escherichia coli thioesterase (protein, Escherichia coli (strain K12), Escherichia coli thioesterase) MNTTLFRWPVRVYYEDTDAGGVVYHASYVAFYERARTEMLRHHHFSQQALMAERVAFVVRKMTVEYYAPARLDDMLEIQTEITSMRGTSLVFTQRIVNAENTLLNEAEVLVVCVDPLKMKPRALPKSIVAEFKQ |  | notable for their activity toward heptanedioyl-ACP methyl ester
9 | SEQ ID NO: 202: Lichtheimia corymbifera carboxylate reductase (protein, Lichtheimia corymbifera JMRC:FSU:9682, Lichtheimia corymbifera carboxylate reductase) MVTLTMDKQTIEIPNDVPGESPILRRTPELMDSFVPGINNIYDLFYNGYKLSRDQPCLGERPILDRTTGERAKQFEWQTYEQVAARVDNFGSGLKHVLQQIGESRPKQIPIGIWSVNRPEWHIVDWACAAHSLYVVALYDTLGPDTVEYVVNHAEIQVVVCTKEHVTDLLKLRSKLPQLKAIISFDTLEKEQSQALHAWAEEKDLLLVEFANVEQHGKENPVPHNPAQRSDLACIMYTSGTTGKSKGVMLTQGNFVAAVSGAIYNVKSSPADVGISYLPLGHIYGRVADAFTVAGGASLGFFSGKVDNLLEDMQILKPTLFNTVPRLLNRIYTGIVQSTLQAPGMMKKSTMSLIWNCSLGITDVGPKGALFRKAIATKLENLEQGKGTQHPVYDRLLFDKVRQVLGGRVRFINTGAAPLGKEVMQLLRVTLLADIRESYGATESCASLTMQIEGDPKPGCIGIPAPCNEMKLIDVPEMNYLTTDKPYARGEICVRGYNVSLGYYKDEEKTKEAFDKDGFYHTGDIGMIDERGTFMVIDRKKNIFKLSQGEYIAPEKIENIYARDILVSQIFVYGDSVQSCLVAIVVPDPIELGKLAQEKLPKLTSLSYEELCNNPEVHIAVLERMMENGKRAEMRGFEFVKAIHLDSKPFTVENNLLTPSLKLKRPEARKFFQKEIEQLYQKLSNSSAGSAARL | preferred acting upon heptanedioic acid to form 7-oxoheptanoate | 
